Values of other authors in paper PMC7062049.

Target: HP1β CSD (Mus musculus) (UniProt P83917)

In the case of HP1β CSD (from UniProt P83917), the Kd is given as 150 nM.
